Assay [1] has as its target CD3 on Jurkat luciferase reporter cells (UniProt P07766). Description: flow cytometry of Jurkat_NFAT_Luc2P cells, PE-A; fold over hIgG.
Assay [2] has the same target. Description: flow cytometry of Jurkat_NFAT_Luc2P cells; reference value, printed in all three panels on the left.
The target is the same in assay [3]. Description: flow cytometry of Jurkat_NFAT_Luc2P cells, FITC-A; fold over hIgG. For orientation: Flow cytometry measures light scatter and fluorescence of single cells or particles in a stream.

The results in this text go back to patent US20190309093A1.

For Commercial CD3e(HiT3a) (antibody), in assay [1], the Fold turned out to be 58.
With hIgG (antibody), in assay [2], the Fold came to 1.
The substance mOKT3 (antibody) returned a Fold in assay [3] of 45.
